Results reported in a protein production outcome set (Wang et al. 2014).

Assay: label from the status in PepcDB records
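Also: failed if final PepcDB status was selected cloned or expressed and not failed if soluble or beyond.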

## MTTFSVIMATYNRGRHILPSIQSVLRQTCRDFELLVVGDCCTDDTADVVRALASPQIRWLNLPERGGSQAFPNNAGIEMSRGRYIAYLGHDDIWAPDHLQALADLFGHTQQPDFAVSGAIFHGPRASNFRWVTGIFDESDTALKHFFPPSSFGHRRDVADRIGKWRHPKEITAPVDADFLLRAARFGMNFVSTQRITVQKFAAGHRYLSYTGHTSDEQERMVRRMARPGYDGYLASELAKAKAAGGYMVVVHPDYERYENGQVSTQNAMAKGVVRPDLRNLRQREVIKQDNSPKALDWVPHQSGGDWVLWAGRNPRPKLLVPFKYAGKARIRLDIRHPLREALTKLKLSVNGQPAVASLGKVRQEGNLWNAQATFETALRRDDHTILELHLTRLQRPAARNGIGVGDMEVTPLGWRSIVAKGTRLLAKFRPAC
  protein production: failed

## MDLVKIDETLDDLQIKDIHIIQKKEGFRFGVDAVLLANYAKVKSNQTVIDLCSGTGIIPFIIQGKKSPRHITGIEIQEDMVQMANRTVLYNKFQEKIKFINEDIKNLAELKKLERVDVVTVNPPYKLRNSGIVNEFDKNAIARHEICCTLEDVIKAARTLLKDNGRLFMVHRPERLADILCLMREYKIEPKSIKMVYPSVNKAPNIVLIEGQRDGGAFLKWEKSLYIHKENGEYTEELNEIYGR
  protein production: failed

## MSLTKLYYEDQYIKEFKGEIIEVKEIDGKFHVLLDQTAFFPGGGGQMGDLGLIDGIKVLDVYEEEGKVYHVLEKEPKKLKNLQCELDWERRFDGMQQHLGQHLLSGCFYDLFGANTCGFHLGKEISTVDIVGFLDEKTIREAEKEANRLIFENLEVKSYAPSKKELKKVKTRRALPKTDEEIRIVEIVGLDLNACCGVHPRNTRDLQVIKIRRWEKHKNATRIEYVAGNRAVSEGHHHHHH
  protein production: not failed

## MKRADFCIIGLGRFGMQVAHSLKENNFTLVLIDNDQHKTNTAAQEFDHVVCCDGSNLTALAELQLEEFSAVIVGVTNIEASIMICANLRELGQKNIIARAKNEVHNRVLRTMGIREALIPEKIVGKNLVIRLIHGMETEIINLGNDILFVRAPVNNKKLFNRTLGEINIREHTNANLISIMRNGKDVVFPLGPNTQIQPGDVITAVCQLSGVNQYLRYINPNDKNKYKASE
  protein production: failed

## MDFNYTIKALRTKKKLDAKPMTHTDFCYTIKALRSTKKLDAKPKPHTDFGYTIKVLRSRKKLELEPQLDLKSLSSVDLLEDTNSKTHTDFSYTIKASRSKKKLDTKSKTRTVFDYTIKAFRSKKKLDRKPKTHTDFGYTFKAMRSKKKLC
  protein production: failed

## MTGKEDEYEFEKTEKSSSLDEESTGSEVNEQKESYLDIINIIGSLMQDENYSLKNESILTINKILSFLNKEIYENKNFTEAWLIKGTVLYKTGKYNGAIDAFDGALESMSEKTSEEKLDTWIKSYGINYRYALKFKAFSLCKLGRYREALNALDEISAIYPEDPEIESHKNMLQTLENERLIRRTGNTQDQPPKHPGIWERRGKSSYKLGKYEEAVKEFDRCLESNPKDADILRNKGSALYMLGRYEEAIEAFNKSLELNPRDADAWNLKGSTLYMIGRPEEALRALDKALQRNPNIFEAWFNKGSILFELGKYKQALSAVENALRINAEDINALTLKTSILSGLKQDEK
  protein production: failed

## MLKSEDADYEKAMKDKVGTGPQEYLKQLSDSLVKNQSAASVEVVSGATHSSDAFINYANQLIQAAQKADTTTISINNLAKMEDGTYKLEEQNYAHGYRVVFSMDVKDGKITKSDYNYVDKDGKLKSDDADYEKNMKAKSGTGPKEYIPALNKSLVEKQDVAAVDTVSGATNSSNQFKIYAAQLQNAAQNGNTDTIKVYNLVEAELEHHHHHH
  protein production: failed

## MQAGNPMSLQSMLPYVTPPVVGAVIGYVTNDIAIRMLFRPLKPWRVFGIRVPLTPGVIPAGRHEFAATIGRMVGTHLVTGTDVARALGKDSFRRELQEAVSGKLDTLLDRDLGTVGSLLPEGFESWLRDGVDLAARRAGETVAGYLQGEDFRRELSLFLRDLEERVLPRELERILAGETGDAVRAGAGRALAALLQSRGVSRAVAGLVDDKLDELLASERPLRELLPPELVELATAQAREAMPVILGRVAEFVRSPEIRDTFEAKLREGVQQYLANLKGTLGFMAGFISVEKLNSYFPGLVGSVTDEVVRWLGEETTHRRVAAMVDQGLGRILDRPLAATVEQLPYRRVALLRRSIRRGALGVVRRPETAGFLLALAERELVRLAADPSRPILERLAPEDDPSRLREGLVGWLTDRLRDPGIRATLERIVAGRVEEWLFNRPLGRLSARISAEVRRDLDQLIYRQVADLLEREAPPLIDALDVARMVEEKINTLDILAVEGLLLSIMQKHFLYINLFGALLGFVMGSFNVLLMGLGR
  protein production: failed

## MRILTLGLDGSGEFAFQSHAHTDHFANGRLIFATRPTIFLSHLRNSRYYIPVDFGKKFYIGDFKAKLYPSGHILGSSGIKIWLDEGTLYYTGDVKVKKLRTVERAKLPKADFLIIESTFGLPRFTFPDPRESEKVIIGIVEDLIDRGKVPTFMANPYGKAQEIIKILNVHGYSVSVDREIAKVSKFYMKFGVRLKFEKEGEVKVSSSKGISVSGFGRIKLSNHADFWELLEIVERVNPEKVFTVYGHAEAFAKILNGLGYEAKSIRRNQKLEVWLEHHHHHH
  protein production: failed

## MSATVPSTASSRAPATTGFRSFLPLIGAVVIWGGNWPVMKMGLAHISPLWFAACRFGSAALISFLVLGALRRLRLPSRQEWPLVIGVGLLQMGAFTALALWALQYVPPGRASVIAYATAIWVIPLSSLVLGERPSRLQWLATAFSYAGIAVIVAPALGGWELHTVMGLTMLLGASLAWSVSIIQLRANRAIRLGADMIPWECAVATVPLIALAWLRDGAPDLGAMVDIWPVIAYTGPLATALTFIVVLNVTQSLPPAATSIAMLGVPVIGLVLSTVAWHEQISLDLSIGLALIGMGVVTTALAPRLGRLAAR
  protein production: failed

## MPKLGMEPIRKAALVKATIVEIGRAGSLDVTVSQIAKRAGMSSALAHHYFGGKEALFIAAMRHVLSLYGAEVRGALLGAETPAARITAILQASFSATNFRREVVGAWLNFYVLAQTAPQARRLLAIYQRRLRSNLLVGLRPLAGERAADLADGLGALIDGLYLREVLKEGPPDSAAAVACARAYLNAHLKECPL
  protein production: failed

## MPDIDAGPRCRDAGSRMFRLAHLTDPHVGPLPRPRLRQLLSKRAAGYVNWRRGRSRHHDMDLLGALIADLHGQGVDHVACTGDLCNLGLPDEWESARVFLEALGPADRVSFVPGNHDAYVRGSLEGLLAACGGWTEADDGQIRLFPYLRRRGPLALVGLSSAIPTKPFVASGRLGPVQIEAAERVLRDLATAPDRPCRVVMIHHPPHPGGAASGRELKDAAAFAAMIGRAGADLILHGHNHVGTVARITGPDGRPVPVVGAPSASARTLLTNRRASYYLYTVTPGENGFQIAVTERGLDEAGGIGELSGFDIETPPADRIGLVHRRRQRHT
  protein production: failed

## MFKRIGLISIALSLNTISFTSEACSALVFNKNKPATVAVNLDWKYREGAFVIHPRNAMMVSSVDYHSMHPLIWKSQYGSVIFHGGNRFKAGPSADGMNEKGLTASILMLDSSIYPSNSELPALKTTEWVQYILDNFQTVQEVIDDSSNYQLVADTYRGITMNVHLMVSDAEGKSAVFEYLDGKLVIHTQDNLTTPVLTNTDYKLSLALLEEYQDHGGSKALPGGYDSKSRFVRAAHYLKKLPSFIAKEEHIAYAFNGLNVVTQAPGTSSPTQLSMVFDIPTKTIYFRSINEAALRVIPMDSIDFDYLYQPIALNVYQHLSGDVTDKFQPMIG
  protein production: failed

## SETQSFVVSVAGSDRVGIVHDFSWALKNISANVESSRMACLGGDFAMIVLVSLNAKDGKLIQSALESALPGFQISTRRASSVAERHVSPDTREYELYVEGPDSEGIVEAVTAVLAKKGANIVELETETLPAPFAGFTLFRMGSRVAFPFPLYQEVVTALSRVEEEFGVDIDLEEVVEGEDSEEDDDSPNSPVGRH
  protein production: not failed

## TERVNLWMHDHGVRRPFRPVVADGYKKTINKNHSVNGSAPNFVHACDAAHLLRTVNAARAEGITQFALVHDSFGSLPSHAARFRQIIREEFVRMYEEHDVLTEVLEQAKCDLDEHNDKLSALVDMRADLTGKLNIKEVLNAEYAFAYP
  protein production: failed

## MGNSQRQSEEIEAMAAIYGEEWCVIDENAKIFCIRVTDFMDDPKWTLCLQVMLPSEYPGTAPPSYQLNAPWLKGQERADLSNSLEEIYVHNMGESILYQWVEKIRDALIQKSQITEP
  protein production: not failed

## MAFLTNDDVVLICDKNYDCPTKIQSVRQKDTTCVAFRPWSQTCEFAVGCAAGICLWSDSRRLNANRNIRRMMGTHHLQVLQDKGHNYVTSMQWNEDGTILVTAAFGSSHIMLWEPDCQQKIRLIPNPKSLGSFSLLRFSPDFHVLFCASCDAGASLCQLNRSKWKLKQILGQQRIQSAVWTTCGSTLLYACYGSTRVYSCTSDGEDSVFLRPQSIWRVQLIMDLQLVTTCAGQRLCCGEPQCLAMDPLGIYMASIFKEQSFVLLCILHTSRWGNVKLLPVEFIYCDMDGDQYPAYISFGVLKAEIRFLIIAWNTGHFQRYDITAQCFRDAQLYHNIN
  protein production: failed

## MYGGIYVNNGYSPMSSNQQNVSVEHDIIMRGRRVIDITGVKQVESFDSEEFLLETVMGFLTIRGQNLQMKNLDVEKGVVSIKGKVHEMLYIDENQGEKTKGFFSKLFKLEHHHHHH
  protein production: not failed

## MLRLVKKSVIGLVDWFLYKALKTSQKQFLSSLLTEKQKQAIKRVIKPGKKQTQLRKIERLKYRLYNLGFTNRALEDLQLICRESGEPYLKRLAAWELALWHANQYTTEDAKACLRYLDIATTGVKDRDDLRAVAIVKAECYDLLGEREQGKELVQQMIETQPHPDLYLAAANLETTVAQRMKWINKVFAHYGTEPLELTEQADEKSPYDALGVNGIDESSENDEQPKVTVIIPAFNAESVIQTSIESMQKQTWTNLEIFVVDDCSTDETASIVHQYAEQDHRVHYLKTETNSGAYVARNIALQHATGDFVTINDADDWSHSRKIEIQVRHLLKHPNIIGNFSQQVRATNDLKFYRRGKPGLYIFANMSSFMFRRKPAMDKLGYWDCVRFAGDSEFVKRIKLAFGEKAVVELPTAPLSFQRQSGESLTSHSAFGFPGYFMGARREYAEAHDHFHRTSQEGLRYSFPQKERPFPVPEPMLPNRQPKSAGRRHFDVILASEFRLLGGTNMSNVEEIKAQREMGLRTGLIQLSRYDLNSVEAINPNVRELIDGDQVQMIVYGEQVSCDVLIVRHPPILQEWQRYVPNVEAKSVHVIVNQPPQRDYGDNGSVLYELPRCIDHLQAYFGKKGIWYPIGPNVREALYEHHHKDLQAIPFSDQDWVNIINVKEWKRVTRREKDGKIKIGRHSRDQYVKWPKDRATMLQIYPDKEPFEVHILGGAKSPTKVLGSLPANWHVREFGEVHPREFLAELDVFVYFTHPDWVEAFGRVVFEAMAAGVPVIVPHEYEKLFGEAAIYAEITEVQEKVMKLMADDKYYQSQVEKALIYVENQFGYSQHAARLETFLHEDERAEV
  protein production: failed

## MKLISQAVKNYLPELSLRQKQTNNIIFITFWSQFSVYALNTVLVLFLTRPLIAQGLGYSQAKAYAFIGVTQATGYLMPILGGYMADNIVGVRRSILLGSIMLACAYLLVMLSGYTISSLGDQLFIIAFAFIPATNSLLMGTASSMVSHIYSDDAIKAKSAMTYYYMAINVGALLATMIAPVLLESRYGPLSVLTLTFIGKSIAALNFAKRYSIYDSVIWGMDKSKFSNQGLLRLVAYIAAIYSLTLYAYTHVYIASTLIGAGCAIGILWFLIKTIMLKGETRSKQMIAVLLIIEAIVFFIIYNQMNSTLVLFAENNSDLSFLWFKISPAQYQMLNPLLILLIGSQLPRFYRFFSRFTIPYQFAAGTILSGIALLVMAFAAQNAINGLVNGNYIALTYILISIAELWVSAIGLSMIGLYCDARAIAFAMGVWYLASSMSNAISGRIAGWVAIPENINSALESLPYYKNYYLIMGISALGLGILMYFVAYYLHKIMKRRGIELA
  protein production: failed

## MKRIKLVRHGESAANAGQASRNHESIPLTHRGLEQAITVARSFTKAPELIVASPFSRAQATAQETSAIFPTVAIETWPIQEFTYLAPARCVDTTVAQRRDWVDAYWARAEPAFCDGEGAESFLDFVYRAQAFLKQLAGHSAANTVVFSHGQFLNAVAWLLERRPQSLDRHAMADWRRYEIENHIPNGCGFYLSQSSTGAEWVLGHRNY
  protein production: failed
